Test results published in paper PMC10641233, “The C-terminal domain of the antiamyloid chaperone DNAJB6 binds to amyloid-β peptide fibrils and inhibits secondary nucleation” (The Journal of Biological Chemistry, 2023).
Substitutions are numbered along the chain they refer to. Names may count otherwise. Each block holds one molecule with its values, some of them ahead of it.

B1: C-terminal domain (CTD) of DNAJB6, WT sequence (residues 186–242 plus a starting Met) (domain or fragment)
chain: MGNFKSISTSTKMVNGRKITTKRIVENGQERVEVEEDGQLKSLTINGKEQLLRLDNK
notes: starting Met added before residue 186; numbers count on: full-length DNAJB6; also called WT CTD
B2: CTD STA (CTD with S190A + S192A + T193A + S194A + T195A in β1) (domain or fragment)
chain: B1 chain with S6A, S8A, T9A, S10A, T11A
notes: starting Met added before residue 186; numbers count on: full-length DNAJB6; also called S/T-A-substituted variant

Columns and labels:
[1] = target: Aβ42 fibrils (amyloid-β peptide Aβ(M1-42), fibrillar form)
[2] = target: Aβ42 fibrils (amyloid-β peptide Aβ(M1-42), fibrillar form); experiment: SPR; Aβ42 fibrils immobilised, construct injected (CTD at 2, 5 and 10 μM); 20 mM sodium phosphate, 0.2 mM EDTA, pH 8.0, 0.005% Tween-20
[3] = target: S100G-CTDβ1–2 (β-strands 1 and 2 of the DNAJB6 CTD, residues 187–212, grafted between the two EF-hands of human S100G) (UniProt O75190); experiment: cross-linking; 10 μM construct, BS3 amine-reactive crosslinker, 20 mM sodium phosphate, 0.2 mM EDTA (pH 8.0), SDS-PAGE with integration of band intensities and LC-MS/MS of excised bands; dimer to monomers; KD are lower bounds
[4] = target: S100G-CTDβ1–2STA (ST/A-substituted variant of S100G-CTDβ1–2) (UniProt O75190); experiment: as above
[5] = target: S100G-CTDβ1–4 (four β-strands of the DNAJB6 CTD, residues 187–231, grafted between the two EF-hands of human S100G) (UniProt O75190); experiment: as above
[6] = target: S100G-CTDβ1–4STA (ST/A-substituted variant of S100G-CTDβ1–4) (UniProt O75190); experiment: as above
[7] = target: the molecule itself; experiment: cross-linking; 10 μM construct, BS3 amine-reactive crosslinker, 20 mM sodium phosphate, 0.2 mM EDTA (pH 8.0), SDS-PAGE with integration of band intensities and LC-MS/MS of excised bands; tetramer to dimers; KD is a lower bound
[8] = target: the molecule itself; experiment: cross-linking; 10 μM construct, BS3 amine-reactive crosslinker, 20 mM sodium phosphate, 0.2 mM EDTA (pH 8.0), SDS-PAGE with integration of band intensities and LC-MS/MS of excised bands; dimer to monomers; KD are lower bounds
[9] = target: the molecule itself; experiment: native MS; equimolar mixture of CTD and CTD STA ionised from 200 mM ammonium acetate, pH 6.8, source temperature 25 °C, gentle ionisation; also nonmixed samples (Fig. S3)
[10] = target: B1; experiment: as above; details: both partners purified

- ThT fluorescence, reaction half time t1/2 of the aggregation of 3 μM Aβ42, CTD:Aβ42 M ratios from 0.05:1 to 1:1 [1]: 10 fold
- Ka [2]: 100000 M⁻¹
Molecule: C-terminal domain (CTD) of DNAJB6, WT sequence (residues 186–242 plus a starting Met) (from UniProt O75190-2 186-241) (domain or fragment)

- Kd [3]: > 60 µM
- Ka [2]: 300000 M⁻¹
Molecule: S100G-CTDβ1–2 (β-strands 1 and 2 of the DNAJB6 CTD, residues 187–212, grafted between the two EF-hands of human S100G) (from UniProt O75190-2 187-212)

- Kd [4]: > 1000 µM
Molecule: S100G-CTDβ1–2STA (ST/A-substituted variant of S100G-CTDβ1–2) (from UniProt O75190-2 187-212)

- Kd [5]: > 500 µM
- Ka [2]: 1e+07 M⁻¹
Molecule: S100G-CTDβ1–4 (four β-strands of the DNAJB6 CTD, residues 187–231, grafted between the two EF-hands of human S100G) (from UniProt O75190-2 187-231)

- Kd [6]: > 1000 µM
Molecule: S100G-CTDβ1–4STA (ST/A-substituted variant of S100G-CTDβ1–4) (from UniProt O75190-2 187-231)

Molecule: B1
- Kd [7]: ≥ 2 µM
- stoichiometry N [7]: 4
- Kd [8]: ≥ 30 µM
- stoichiometry N [9]: 2

Molecule: B2
- Kd [8]: ≥ 600 µM
- binding result [10]: binds
- stoichiometry N [9]: 2
